A short description of this series: collision cross section of modified peptide (TIMS, N2, iRT-aligned); higher = larger / more extended gas-phase ion. As to the method:
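1/K0 was aligned run-wise to spiked iRT peptides and converted to CCS in N2 (Mason-Schamp). Values are the mean of 1-3 technical replicates for the most abundant feature at each charge state.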

Where [1] appears, read: charge state: 2, modification: Propionyl.
Setting [2] is: charge state: 3, modification: Propionyl.
Where [3] appears, read: charge state: 2, modification: HexNAc (ST).
[4] abbreviates: charge state: 2, modification: Formyl.
The mark [5] stands for this setting: charge state: 3, modification: Formyl.
[6] abbreviates: charge state: 2, modification: Hydroxyproline.
The mark [7] stands for this setting: charge state: 2, modification: GlyGly (K).
Where [8] appears, read: charge state: 3, modification: GlyGly (K).
[9] abbreviates: charge state: 3, modification: Methyl (K).
Setting [10] is: charge state: 2, modification: Butyryl.
Where [11] appears, read: charge state: 2, modification: Dimethyl (K).
Setting [12] is: charge state: 3, modification: Dimethyl (K).
Setting [13] is: charge state: 2, modification: Malonyl.
Setting [14] is: charge state: 3, modification: Malonyl.
Where [15] appears, read: charge state: 2, modification: Trimethyl (K).
The mark [16] stands for this setting: charge state: 3, modification: Trimethyl (K).
Setting [17] is: charge state: 2, modification: Crotonyl.
[18] abbreviates: charge state: 2, modification: Nitro (Y).
[19] abbreviates: charge state: 2, modification: hydroxyisobutyryl.
[20] abbreviates: charge state: 2, modification: Glutarylation.
The mark [21] stands for this setting: charge state: 3, modification: Butyryl.
The mark [22] stands for this setting: charge state: 3, modification: Glutarylation.
The mark [23] stands for this setting: charge state: 2, modification: Succinyl.

± gives the standard deviation.

For “SGNLTEDDKHNNAK [_SGNLTEDDK(Propionyl)HNNAK_]”, the collision cross section reads like this: under setting [1], 423.13 ± 0.36 Å²; under setting [2], 471.16 Å².
For “ASTPGAAAQIQEVK [_AS(HexNAc (ST))TPGAAAQIQEVK_]”, the collision cross section under setting [3] stood at 409.94 ± 0.76 Å².
On to PAVTAAPK [_PAVT(HexNAc (ST))AAPK_], for which the collision cross section under setting [3] was determined as 333.39 ± 1 Å².
Consider “PANEKATDDYHYEK [_PANEK(Formyl)ATDDYHYEK_]”, for which the collision cross section is reported as 435.25 ± 0.72 Å² under setting [4] and 497.77 ± 2.4 Å² under setting [5].
Take “GERGPPGPPGR [_GERGPP(Hydroxyproline)GPPGR_]”: the collision cross section under setting [6] was found to be 333.05 Å².
Turning to ASDTSSETVFGKR [_ASDTSSETVFGK(Formyl)R_], under setting [4], the collision cross section was found to be 390.61 ± 0.41 Å².
Turning to “TQAYQDQKPGTSGLR [_TQAYQDQK(GlyGly (K))PGTSGLR_]”, the collision cross section reads like this: under setting [7], 432.62 ± 1.4 Å²; under setting [8], 500.32 ± 0.35 Å².
For the sequence “GSYLGGYSAGRGIYSR [_GSYLGGYSAGR(Methyl (R))GIYSR_]”, the collision cross section (charge state: 3, modification: Methyl (R)) stood at 481.98 Å².
For “VDIDVPDVNIEGPDAKLK [_VDIDVPDVNIEGPDAK(Methyl (K))LK_]”, the collision cross section is, setting by setting: (charge state: 2, modification: Methyl (K)) 457.57 ± 0.42 Å²; under setting [9], 489.73 ± 3.2 Å².
In turn, “GTVPDDAVEALADSLGKK [_GTVPDDAVEALADSLGK(GlyGly (K))K_]” had a collision cross section under setting [7] of 485.77 ± 1.3 Å² and a collision cross section under setting [8] of 534.99 ± 1.1 Å².
ALASIDSKLNQAK [_ALASIDSK(Formyl)LNQAK_] came in with a collision cross section under setting [4] of 395.38 ± 0.55 Å².
As to ASEALLKQLK [_ASEALLK(Butyryl)QLK_], the collision cross section under setting [10] came to 379.45 ± 0.72 Å².
For LDEKENLSAK [_LDEK(Dimethyl (K))ENLSAK_], the collision cross section came out at 364.75 ± 0.28 Å² under setting [11] and 441.27 Å² under setting [12].
Regarding “DDSFLGKLGGTLAR [_DDSFLGK(Malonyl)LGGTLAR_]”, the collision cross section under setting [13] was 411.31 ± 1 Å² and the collision cross section under setting [14] was 489.57 ± 2.2 Å².
On to “GTITVSAQELKDNR [_GTITVSAQELK(Formyl)DNR_]”, for which the collision cross section is, setting by setting: under setting [4], 413.69 ± 0.19 Å²; under setting [5], 471.67 ± 1.8 Å².
“LGVPGLPGYPGR [_LGVPGLPGYP(Hydroxyproline)GR_]” showed a collision cross section under setting [6] of 362.53 ± 0.8 Å².
Take “VETTVTSLKTK [_VETTVTSLK(Trimethyl (K))TK_]”: the collision cross section worked out at 391.95 ± 0.62 Å² under setting [15] and 455.28 ± 8.1 Å² under setting [16].
For ASEALLKQLK [_ASEALLK(Malonyl)QLK_], the collision cross section under setting [13] is given as 374.73 ± 0.63 Å².
In turn, KFGVLSDNFK [_K(Crotonyl)FGVLSDNFK_] displayed a collision cross section under setting [17] of 376.47 ± 0.8 Å².
Turning to AYILNLVK [_AY(Nitro (Y))ILNLVK_], under setting [18], the collision cross section turned out to be 333.68 ± 0.72 Å².
Turning to ASNAAVKLAESK [_ASNAAVK(Butyryl)LAESK_], under setting [10], the collision cross section worked out at 375.52 ± 1.2 Å².
“GAEKTEVAEPR [_GAEK(hydroxyisobutyryl)TEVAEPR_]” registered a collision cross section under setting [19] of 376.1 ± 9 Å².
Turning to “IPQEKCILQTDVK [_IPQEK(Gluratylation)CILQTDVK_]”, under setting [20], the collision cross section was 437.23 ± 0.96 Å².
On to “IHVQSSSDSSDEPAEKR [_IHVQSSSDSSDEPAEK(Butyryl)R_]”, for which the collision cross section reads like this: under setting [10], 452.33 ± 0.51 Å²; under setting [21], 504.47 ± 2.6 Å².
On to “GERGFPGYPGPK [_GERGFP(Hydroxyproline)GYPGPK_]”, for which, under setting [6], the collision cross section is reported as 370.65 ± 1.8 Å².
Turning to “PANEKATDDYHYEK [_PANEK(GlyGly (K))ATDDYHYEK_]”, the collision cross section is, setting by setting: under setting [7], 439.63 ± 1.2 Å²; under setting [8], 506.82 ± 0.35 Å².
Regarding “IVSGKDYNVTANSK [_IVSGK(Butyryl)DYNVTANSK_]”, the collision cross section under setting [10] came to 419.09 ± 2.9 Å².
Take “VDVEVPDVSLEGPEGKLK [_VDVEVPDVSLEGPEGK(Gluratylation)LK_]”: the collision cross section is reported as 465.13 ± 4.5 Å² under setting [20] and 502.24 Å² under setting [22].
Under setting [17], “AAINQKLIETGER [_AAINQK(Crotonyl)LIETGER_]” displayed a collision cross section of 409.27 ± 0.81 Å².
As to SKHLQEQLNELK [_SK(Malonyl)HLQEQLNELK_], the collision cross section is given as 415.64 Å² under setting [13] and 480.76 ± 0.91 Å² under setting [14].
LLEQKTQESQK [_LLEQK(Crotonyl)TQESQK_] came in with a collision cross section under setting [17] of 398.38 ± 1.1 Å².
For “GKLGVPGLPGYPGR [_GKLGVP(Hydroxyproline)GLPGYPGR_]”, the collision cross section is, setting by setting: under setting [6], 384.86 ± 0.79 Å²; (charge state: 3, modification: Hydroxyproline) 481 ± 2.9 Å².
Turning to “THLAPYSDELR [_THLAPY(Phospho (Y))SDELR_]”, the collision cross section is given as 373.88 ± 0.063 Å² (charge state: 2, modification: Phospho (Y)) and 446.73 ± 1.1 Å² (charge state: 3, modification: Phospho (Y)).
With GAEKTEVAEPR [_GAEK(Acetyl (K))TEVAEPR_], for the setting “charge state: 2, modification: Acetyl (K)”, the collision cross section turned out to be 370.22 ± 7.6 Å².
Consider LDHLAEKFR [_LDHLAEK(Dimethyl (K))FR_], for which the collision cross section is 368.82 ± 0.36 Å² under setting [11] and 433.76 ± 2.1 Å² under setting [12].
Regarding “ATVASSTQKFQDLGVK [_ATVASSTQK(Dimethyl (K))FQDLGVK_]”, the collision cross section is recorded as 461.58 ± 1.2 Å² under setting [11] and 471.81 ± 2.1 Å² under setting [12].
For the setting “charge state: 3, modification: Biotin”, “IHVQSSSDSSDEPAEKR [_IHVQSSSDSSDEPAEK(Biotin)R_]” came in with a collision cross section of 513.52 Å².
Sequence “STGLELETPSLVPVKK [_STGLELETPSLVPVK(GlyGly (K))K_]” came in with a collision cross section under setting [7] of 452.54 ± 1.9 Å² and a collision cross section under setting [8] of 530.27 ± 9.4 Å².
Take SGFGKFER [_SGFGK(Succinyl)FER_]: the collision cross section under setting [23] is on record as 336.55 ± 1.3 Å².
“TFGKAAGPSLSHTSGGTQSK [_TFGK(Methyl (K))AAGPSLSHTSGGTQSK_]” gave a collision cross section under setting [9] of 525.9 ± 1.3 Å².
On to LGNDFHTNKR [_LGNDFHTNK(Butyryl)R_], for which the collision cross section reads like this: under setting [10], 377.65 ± 0.22 Å²; under setting [21], 446.3 ± 2.8 Å².
With “PANEKATDDYHYEK [_PANEK(Gluratylation)ATDDYHYEK_]”, the collision cross section is, setting by setting: under setting [20], 448.09 ± 1.5 Å²; under setting [22], 511.51 ± 1 Å².
As to DFDTALKHYDK [_DFDTALK(Crotonyl)HYDK_], the collision cross section by setting is: under setting [17], 412.02 ± 2.4 Å²; (charge state: 3, modification: Crotonyl) 466.35 ± 1.9 Å².
In the case of “FGDSRGGGGNFGPGPGSNFR [_FGDSR(Citrullination (R))GGGGNFGPGPGSNFR_]”, where the note is “charge state: 3, modification: Citrullination (R)”, the collision cross section is listed as 490.23 ± 0.77 Å².
“SLKLNTAEDAK [_SLK(hydroxyisobutyryl)LNTAEDAK_]”: the collision cross section under setting [19] was 378.64 ± 0.28 Å².
As for “DAIHFYNKSLAEHR [_DAIHFYNK(Gluratylation)SLAEHR_]”, the collision cross section under setting [20] came to 458.31 Å² and the collision cross section under setting [22] is 515.3 ± 0.96 Å².
With “SSFAYKDQNENR [_SSFAYK(Propionyl)DQNENR_]”, the collision cross section stood at 401.75 ± 0.65 Å² under setting [1] and 462.04 Å² under setting [2].
In the case of “VGVEVPDVNIEGPEGKLK [_VGVEVPDVNIEGPEGK(GlyGly (K))LK_]”, the collision cross section reads like this: under setting [7], 464.33 ± 1.3 Å²; under setting [8], 509.72 ± 1.9 Å².
“VGEFSGANKEK [_VGEFSGANK(Trimethyl (K))EK_]”: the collision cross section by setting is: under setting [15], 384.48 ± 1.7 Å²; under setting [16], 437.18 ± 7.5 Å².
Regarding “VPTTEKPTVTVNFR [_VPTTEK(GlyGly (K))PTVTVNFR_]”, the collision cross section is, setting by setting: under setting [7], 431.31 ± 0.85 Å²; under setting [8], 523.98 ± 3.9 Å².
As for “SPSDSGYSYETIGKTTK [_SPSDSGYSYETIGK(Dimethyl (K))TTK_]”, the collision cross section reads like this: under setting [11], 470.19 ± 1.3 Å²; under setting [12], 515.36 ± 1.6 Å².
For “FSAYIKNSNPALNDNLEK [_FSAYIK(Dimethyl (K))NSNPALNDNLEK_]”, the collision cross section under setting [12] is recorded as 510.58 ± 2.9 Å².
The sequence “VNIGQGSHPQKVK [_VNIGQGSHPQK(Trimethyl (K))VK_]” registered a collision cross section under setting [15] of 405.12 ± 1.9 Å² and a collision cross section under setting [16] of 473.39 ± 2.7 Å².
For the sequence GAEKTEVAEPR [_GAEK(Butyryl)TEVAEPR_], the collision cross section under setting [10] is given as 380.97 ± 1.3 Å².
As for SSFAYKDQNENR [_SSFAYK(Butyryl)DQNENR_], the collision cross section by setting is: under setting [10], 402.63 ± 0.85 Å²; under setting [21], 462.59 ± 3.8 Å².
In the case of VNIGQGSHPQKVK [_VNIGQGSHPQK(Formyl)VK_], the collision cross section by setting is: under setting [4], 425.2 ± 1.4 Å²; under setting [5], 472.74 ± 2.1 Å².
Under setting [18], YTTNNSSEQR [_Y(Nitro (Y))TTNNSSEQR_] returned a collision cross section of 355.01 ± 0.17 Å².
For the sequence “ANEKTESSSAQQVAVSR [_ANEK(Succinyl)TESSSAQQVAVSR_]”, the collision cross section is, setting by setting: under setting [23], 443.48 ± 0.35 Å²; (charge state: 3, modification: Succinyl) 533.43 ± 0.35 Å².

For the origin of these results see the supplement of paper PMC10598134.
